According to patent US20220291215A1:

Legend:
[1] = target: DQ6 (DQA1*01:02-DQB1*06:02)-restricted influenza virus HA-specific TCR (DM2); test: flow cytometry, TCR-transduced primary T cells
[2] = target: memory CD4+ T cells from DP4+ donors, unstimulated (a small subset; their TCRs); test: flow cytometry ex vivo; 73637 evts in the dimer- CD4+ gate
[3] = target: memory CD4+ T cells from DP4+ donors, unstimulated (a small subset; their TCRs); test: flow cytometry ex vivo; 49894 evts in the dimer- CD4+ gate
[4] = target: memory CD4+ T cells from DP4+ donors, unstimulated (a small subset; their TCRs); test: flow cytometry ex vivo; 82428 evts in the dimer- CD4+ gate
[5] = target: memory CD4+ T cells from DP4+ donors, unstimulated (a small subset; their TCRs); test: flow cytometry ex vivo; 122436 evts in the dimer- CD4+ gate
[6] = target: memory CD4+ T cells from DP4+ donors, unstimulated (a small subset; their TCRs); test: flow cytometry ex vivo; 159441 evts in the dimer- CD4+ gate
[7] = target: memory CD4+ T cells from DP4+ donors, unstimulated (a small subset; their TCRs); test: flow cytometry ex vivo; 71402 evts in the dimer- CD4+ gate
[8] = target: memory CD4+ T cells from DP4+ donors, unstimulated (a small subset; their TCRs); test: flow cytometry ex vivo; 50227 evts in the dimer- CD4+ gate
[9] = target: memory CD4+ T cells from DP4+ donors, unstimulated (a small subset; their TCRs); test: flow cytometry ex vivo; 80783 evts in the dimer- CD4+ gate
[10] = target: memory CD4+ T cells from DP4+ donors, unstimulated (a small subset; their TCRs); test: flow cytometry ex vivo; 122665 evts in the dimer- CD4+ gate
[11] = target: memory CD4+ T cells from DP4+ donors, unstimulated (a small subset; their TCRs); test: flow cytometry ex vivo; 160045 evts in the dimer- CD4+ gate

Control (DQ6^L114W/V143M+3reps dimer) (peptide-MHC)
% dimer+ CD4+ cells [1]: 0.1%

DP4^L112W/V141M dimer loaded with herpes simplex virus type-2-UL21283-302 (HSV-2-UL21283-302) (peptide-MHC)
events in the dimer+ CD4+ gate [2]: 8 evts | events in the dimer+ CD4+ gate [3]: 1 evts | events in the dimer+ CD4+ gate [4]: 1 evts | events in the dimer+ CD4+ gate [5]: 6 evts | events in the dimer+ CD4+ gate [6]: 1 evts

DR1 dextramer (PE), Flu-HA306-318 (peptide-MHC)
percent multimer-positive CD4+ cells (number at the gate) (DR1-restricted TCR HA1.7): 30.4%

DP4^L112W/V141M dimer loaded with respiratory syncytial virus glycoprotein162-175 (RSV-GP162-175) (peptide-MHC)
events in the dimer+ CD4+ gate [7]: 25 evts | events in the dimer+ CD4+ gate [8]: 1 evts | events in the dimer+ CD4+ gate [9]: 4 evts | events in the dimer+ CD4+ gate [10]: 10 evts | events in the dimer+ CD4+ gate [11]: 37 evts
